# ± gives the uncertainty stated by the source.
# B1: library; numbered along this chain (parent)
# chain: MEVVDPQQLGMFTEGELMSVGMDTFIHRIDSTEVIYQPRRKRAKLIGKYLMGDLLGEGSYGKVKEVLDSETLCRRAVKILKKKKLRRIPNGEANVKKEIQLLRRLRHKNVIQLVDVLYNEEKQKMYMVMEYCVCGMQEMLDSVPEKRFPVCQAHGYFCQLIDGLEYLHSQGIVHKDIKPGNLLLTTGGTLKISDLGVAEALHPFAADDTCRTSQGSPAFQPPEIANGLDTFSGFKVDIWSAGVTLYNITTGLYPFEGDNIYKLFENIGKGSYAIPGDCGPPLSDLLKGMLEYEPAKRFSIRQIRQHSWFRKKHPPAEAPVPIPPSPDTKDRWRSMTVVPYLEDLHGADEDEDLFDIEDDIIYTQDFTVPGQVPEEEASHNGQRRGLPKAVCMNGTEAAQLSTKSRAEGRAPNPARKACSASSKIRRLSACKQQ
# Variants of: B1
# Assay: STK11 functional score (HeLa growth suppression), rescaled enrichment; synonymous median = 1, nonsense median = 0 (normalised score)
# Details: with HeLa; variant type: missense
# In short: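 Codon-randomised (POPCode) libraries of codon-optimised STK11 were integrated by Bxb1 at an AAVS1 landing pad in HeLa, in three regions each transfected three times. Integrants (BFP-negative, mCherry-positive) were FACS-sorted 4–5 days after electroporation and grown about two weeks; tiled gDNA amplicons were sequenced on NextSeq (~2 million reads per tile). The functional score is the wild-type-corrected post/pre-selection log ratio, rescaled to synonymous and nonsense medians, merged over codons and replicate transfections, with bootstrapped error.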
row,Variant,STK11 functional score
1,MEVVDPQQLGMFTEGELMSVGMDTFIHRIDSTEVIYQPRRKRAKLIGKYLMGDLLGEGSYGKVKEVLDSETLCRRAVKILKKKKLRRIPNGEANVKKEIQLLRRLRHKNVIQLVDVLYNEEKQKMYMVMEYCVCGMQEMLDSVPEKRFPVCQAHGYFCQLIDGLEYLHSQGIVHKDIKPGNLLLTTGGTLKISDLGVAEALHPFAADDTCRTSQGSPAFQPPEIANGLDTFSGFKVDIWSAGVTLYNITTGLYPFEGDNIYKLFENIGKGSYAIPGDCGPPLSDLLKGMLEYEPAKRFSIRQIRQHSWFRKKHPPAEAPVPIPGSPDTKDRWRSMTVVPYLEDLHGADEDEDLFDIEDDIIYTQDFTVPGQVPEEEASHNGQRRGLPKAVCMNGTEAAQLSTKSRAEGRAPNPARKACSASSKIRRLSACKQQ [P324G],1.36 ± 0.15
2,MEVVDPQQLGMFTEGELMSVGMDTFIHRIDSTEVIYQPRRKRAKLIGKYLMGDLLGEGSYGKVKEVLDSETLCRRAVKILKKKKLRRIPNGEANVKKEIQLLRRLRHKNVIQLVDVLYNEEKQKMYMVMEYCVCGMQEMLDSVPEKRFPVCQAHGYFCQLIDGLEYLHSQGIVHKDIKPGNLLLTTGGTLKISDLGVAEALHPFAADDTCRTSQGSPAFQPPEIANGLDTFSGFKVDIWSAGVTLYNITTGLYPFEGDNIYKLFENIGKGSYAIPGDCGPPLSDLLKGMLEYEPAKRFSIRQIRQHSWFRKKHPPAEAPVPIPHSPDTKDRWRSMTVVPYLEDLHGADEDEDLFDIEDDIIYTQDFTVPGQVPEEEASHNGQRRGLPKAVCMNGTEAAQLSTKSRAEGRAPNPARKACSASSKIRRLSACKQQ [P324H],1.48 ± 0.15
3,MEVVDPQQLGMFTEGELMSVGMDTFIHRIDSTEVIYQPRRKRAKLIGKYLMGDLLGEGSYGKVKEVLDSETLCRRAVKILKKKKLRRIPNGEANVKKEIQLLRRLRHKNVIQLVDVLYNEEKQKMYMVMEYCVCGMQEMLDSVPEKRFPVCQAHGYFCQLIDGLEYLHSQGIVHKDIKPGNLLLTTGGTLKISDLGVAEALHPFAADDTCRTSQGSPAFQPPEIANGLDTFSGFKVDIWSAGVTLYNITTGLYPFEGDNIYKLFENIGKGSYAIPGDCGPPLSDLLKGMLEYEPAKRFSIRQIRQHSWFRKKHPPAEAPVPIPASPDTKDRWRSMTVVPYLEDLHGADEDEDLFDIEDDIIYTQDFTVPGQVPEEEASHNGQRRGLPKAVCMNGTEAAQLSTKSRAEGRAPNPARKACSASSKIRRLSACKQQ [P324A],1.35 ± 0.15
4,MEVVDPQQLGMFTEGELMSVGMDTFIHRIDSTEVIYQPRRKRAKLIGKYLMGDLLGEGSYGKVKEVLDSETLCRRAVKILKKKKLRRIPNGEANVKKEIQLLRRLRHKNVIQLVDVLYNEEKQKMYMVMEYCVCGMQEMLDSVPEKRFPVCQAHGYFCQLIDGLEYLHSQGIVHKDIKPGNLLLTTGGTLKISDLGVAEALHPFAADDTCRTSQGSPAFQPPEIANGLDTFSGFKVDIWSAGVTLYNITTGLYPFEGDNIYKLFENIGKGSYAIPGDCGPPLSDLLKGMLEYEPAKRFSIRQIRQHSWFRKKHPPAEAPVPIPLSPDTKDRWRSMTVVPYLEDLHGADEDEDLFDIEDDIIYTQDFTVPGQVPEEEASHNGQRRGLPKAVCMNGTEAAQLSTKSRAEGRAPNPARKACSASSKIRRLSACKQQ [P324L],1.37 ± 0.19
5,MEVVDPQQLGMFTEGELMSVGMDTFIHRIDSTEVIYQPRRKRAKLIGKYLMGDLLGEGSYGKVKEVLDSETLCRRAVKILKKKKLRRIPNGEANVKKEIQLLRRLRHKNVIQLVDVLYNEEKQKMYMVMEYCVCGMQEMLDSVPEKRFPVCQAHGYFCQLIDGLEYLHSQGIVHKDIKPGNLLLTTGGTLKISDLGVAEALHPFAADDTCRTSQGSPAFQPPEIANGLDTFSGFKVDIWSAGVTLYNITTGLYPFEGDNIYKLFENIGKGSYAIPGDCGPPLSDLLKGMLEYEPAKRFSIRQIRQHSWFRKKHPPAEAPVPIPMSPDTKDRWRSMTVVPYLEDLHGADEDEDLFDIEDDIIYTQDFTVPGQVPEEEASHNGQRRGLPKAVCMNGTEAAQLSTKSRAEGRAPNPARKACSASSKIRRLSACKQQ [P324M],0.794 ± 0.7
6,MEVVDPQQLGMFTEGELMSVGMDTFIHRIDSTEVIYQPRRKRAKLIGKYLMGDLLGEGSYGKVKEVLDSETLCRRAVKILKKKKLRRIPNGEANVKKEIQLLRRLRHKNVIQLVDVLYNEEKQKMYMVMEYCVCGMQEMLDSVPEKRFPVCQAHGYFCQLIDGLEYLHSQGIVHKDIKPGNLLLTTGGTLKISDLGVAEALHPFAADDTCRTSQGSPAFQPPEIANGLDTFSGFKVDIWSAGVTLYNITTGLYPFEGDNIYKLFENIGKGSYAIPGDCGPPLSDLLKGMLEYEPAKRFSIRQIRQHSWFRKKHPPAEAPVPIPISPDTKDRWRSMTVVPYLEDLHGADEDEDLFDIEDDIIYTQDFTVPGQVPEEEASHNGQRRGLPKAVCMNGTEAAQLSTKSRAEGRAPNPARKACSASSKIRRLSACKQQ [P324I],1.56 ± 0.27
7,MEVVDPQQLGMFTEGELMSVGMDTFIHRIDSTEVIYQPRRKRAKLIGKYLMGDLLGEGSYGKVKEVLDSETLCRRAVKILKKKKLRRIPNGEANVKKEIQLLRRLRHKNVIQLVDVLYNEEKQKMYMVMEYCVCGMQEMLDSVPEKRFPVCQAHGYFCQLIDGLEYLHSQGIVHKDIKPGNLLLTTGGTLKISDLGVAEALHPFAADDTCRTSQGSPAFQPPEIANGLDTFSGFKVDIWSAGVTLYNITTGLYPFEGDNIYKLFENIGKGSYAIPGDCGPPLSDLLKGMLEYEPAKRFSIRQIRQHSWFRKKHPPAEAPVPIPCSPDTKDRWRSMTVVPYLEDLHGADEDEDLFDIEDDIIYTQDFTVPGQVPEEEASHNGQRRGLPKAVCMNGTEAAQLSTKSRAEGRAPNPARKACSASSKIRRLSACKQQ [P324C],1.33 ± 0.41
